From PMC8583167 (Oncoimmunology, 2021)
Numbering of substitutions follows the chain as printed.

B1: anti-mCS1 sdAb1, untagged (VHH)
VHH: QVQLQESGGGLVQPGGSLRLSCAASGFTFSSTAMSWARQAPGKGLEWVSSIYSDGSTSYADSMKGRSTISRDNAKNTVYLQMNSLKPEDTAVYYCAIGDTGWGRVGQGTQVTVSS
B2: sdAb9 (VHH)
VHH: QVQLQESGGGLVQPGGSLRLSCAASGSIFSILSMGWYRQAPGKQRELVASITNGGSTNYADSVKGRFTIFRDNAKNTVDLQMNSLKPEDTAVYYCNARPPRADLWGQGTQVTVSS
B3: sdAb6 (VHH)
VHH: QVQLQESGGGLVQPGGSLRLSCAASGSIFSILAMGWYRQAPGKQRELVASVTNGGSTNYADSVKGRFTISRDNAKNTVYLQMNSLKPEDTAVYYCNVRPYSDYDSWGHGTQVTVSS
B4: sdAb8 (VHH)
VHH: B3 VHH with S62F, A74V, S105Y, H108Q
B5: sdAb7 (VHH)
VHH: B3 VHH with H108Q
B6: sdAb5 (VHH)
VHH: QVQLQESGGGLVQPGGSLRLSCAVSRSIFSFYAMGWYRQAPGKERELVARIISGGSTNYADSVKGRFTIARDNAKNTVYLQMNSLKPEDTAVYYCVAEQFLNDFTLRDWGQGTQVTVSS
B7: sdAb10 (VHH)
VHH: QVQLQESGGGLVQPGGSLRLSCAASGSIFSIYAMGWYRQAPGKQRELVAGITSGGSTHYADSVKGRFTISRDNAKNSVYLQMNSLKPEDTAVYYCNSDLDPPSGTYYPALWSWGQGTQVTVSS
B8: sdAb3 (VHH)
VHH: QVQLQESGGGLVQPGGSLRLSCAASGSIFSIYAMDWYRQAPGKQRELVARITSDGSTNYADSVKGRFTISRDNAKNAVYLQMNSLKPEDTAVYYCVAEQSLGEHTLRDWGQGTQVTVSS
B9: sdAb4 (VHH)
VHH: B8 VHH with L11F, I31V, D35G, R50A, S53R, D54G, T57A
B10: sdAb2 (VHH)
VHH: QVQLQESGGGLVQPGGSLKLSCAASGSIASIYAMGWYRQAPGKQRELVATISSDGSTNYADSVKGRFTISRNNTDNTVCLQMNSLKPEDTALYTCITEQFLGDHTLRDWGQGTQVTVSS

molecular target: T1, mCS1-His (Mus musculus, strain , UniProt Q8BHK6); experiment: SPR
T1 sequence (Q8BHK6 23-333): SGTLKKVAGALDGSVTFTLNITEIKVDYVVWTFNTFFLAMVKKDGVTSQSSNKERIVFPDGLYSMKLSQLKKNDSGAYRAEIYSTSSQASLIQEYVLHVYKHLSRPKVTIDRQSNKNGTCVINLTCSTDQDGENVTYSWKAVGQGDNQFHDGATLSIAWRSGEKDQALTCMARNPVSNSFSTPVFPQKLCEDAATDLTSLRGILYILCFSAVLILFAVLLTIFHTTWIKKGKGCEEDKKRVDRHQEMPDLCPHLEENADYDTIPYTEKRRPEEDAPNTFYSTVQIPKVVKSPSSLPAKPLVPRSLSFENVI

Binder	Kd
B1	25 nM

molecular target: T1, mCS1-His; experiment: not given

Binder	binding result
B2	binds
B3	binds
B4	binds
B5	binds
B6	binds
B7	binds
B8	binds
B9	binds
B10	binds
